According to patent US20230303666A1:

Target: SARS-CoV-2 S on pseudotyped lentivirus (pCMV-SARS2deltaC-gp41) (SARS-CoV-2) (UniProt P0DTC2)
Experiment: cell-based or functional assay

Nb21.t (VHH)
IC50 of pseudovirus neutralization: 244 pM
